For one test, the target named is CD46 (human) (UniProt P15529). Kind of test: SPR; Biacore T200; CD46 or CAR amine-coupled to a CM5 chip (2,390-2,640 RU CD46, 2,380-2,870 RU CAR); whole virions as analyte, twofold series 50-12.5 µg/mL, 120 s at 30 µL/min; 25°C, HBS-EP+ (10 mM HEPES, 150 mM NaCl, 3 mM EDTA, 0.005% P20, pH 7.4); performed once. For orientation: In SPR one partner is held on a chip, and binding of the other changes the refractive index at the surface.

Test [1] addresses coxsackievirus and adenovirus receptor (CAR) (UniProt P78310). The test is described as above.

Consider four substances from article PMC12607895.

By Kd is commonly meant a measure of binding affinity in units of concentration. A high value points to a looser complex.

Chain of CD46 (human) (P15529 35-392): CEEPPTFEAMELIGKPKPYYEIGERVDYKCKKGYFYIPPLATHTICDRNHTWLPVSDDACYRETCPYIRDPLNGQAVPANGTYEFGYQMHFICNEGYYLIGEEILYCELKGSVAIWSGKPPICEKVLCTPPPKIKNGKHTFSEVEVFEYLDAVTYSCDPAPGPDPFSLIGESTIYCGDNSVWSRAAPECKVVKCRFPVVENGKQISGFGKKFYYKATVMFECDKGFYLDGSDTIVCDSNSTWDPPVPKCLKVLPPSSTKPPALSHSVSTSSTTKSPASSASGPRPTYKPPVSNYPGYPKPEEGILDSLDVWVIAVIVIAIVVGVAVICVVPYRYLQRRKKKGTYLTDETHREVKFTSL
Chain of coxsackievirus and adenovirus receptor (CAR) (P78310 20-365): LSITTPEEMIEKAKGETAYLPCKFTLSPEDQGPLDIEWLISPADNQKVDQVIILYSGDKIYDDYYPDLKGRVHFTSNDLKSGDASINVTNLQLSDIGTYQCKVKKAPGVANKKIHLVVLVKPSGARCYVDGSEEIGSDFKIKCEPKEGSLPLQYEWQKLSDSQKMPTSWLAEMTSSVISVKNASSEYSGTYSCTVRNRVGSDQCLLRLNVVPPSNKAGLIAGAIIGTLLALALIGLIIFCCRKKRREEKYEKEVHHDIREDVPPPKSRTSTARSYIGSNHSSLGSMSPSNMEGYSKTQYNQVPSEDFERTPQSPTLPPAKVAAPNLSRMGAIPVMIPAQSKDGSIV

As for HAdV-B11 virion (complex), the dissociation constant Kd in the test with CD46 (human) was found to be 0.0048 nM. On the same count and under the same terms, in the case of HAdV-D37 virion (complex) it was 0.1 nM. In the case of HAdV-D26 virion (complex), in test [1], the Kd was determined as 0.076 nM. In the test with CD46 (human), HAdV-D39 virion (complex) registered a Kd of 0.1 nM.
